Measurements from publication PMC6155051, “Structures of insect Imp-L2 suggest an alternative strategy for regulating the bioavailability of insulin-like hormones” (Nature Communications, 2018).

B1: Drosophila imaginal morphogenesis protein-late 2 protein (Imp-L2) (natural protein, Drosophila melanogaster, UniProt Q09024 26-267, looked up)
chain: RAVDLVDDSNDVDNSIEAEEEKPRNRAFEADWLKFTKTPPTKLQQADGATIEIVCEMMGSQVPSIQWVVGHLPRSELDDLDSNQVAEEAPSAIVRVRSSHIIDHVLSEARTYTCVGRTGSKTIYASTVVHPPRSSRLTPEKTYPGAQKPRIIYTEKTHLDLMGSNIQLPCRVHARPRAEITWLNNENKEIVQGHRHRVLANGDLLISEIKWEDMGNYKCIARNVVGKDTADTFVYPVLNEED
notes: signal peptide in the construct: full-length Drosophila Imp-L2 with the native signal peptide, secreted into the medium; After 3C cleavage, residues of the protease site should remain at the C-terminus (surmised); A selenomethionine-labelled form was also made; the apo structure was solved by MAD; also called Dm Imp-L2; apo-Imp-L2; source: baculovirus-infected Sf9 cells, purified from conditioned …
B2: Drosophila insulin-like peptide 5, C4 variant (B2-B29) (ligand)
chain 1: NSLRACGPALMDMLRVACPNGFNSMFAK
chain 2: DFRGVVDSCCRNSCSFSTLRAYCDS

Columns and labels:
[1] = biological target: Drosophila imaginal morphogenesis protein-late 2 protein (Imp-L2) (Drosophila melanogaster) (UniProt Q09024); assay: ITC; Imp-L2 (12.8-22.6 uM) in the cell, hormone about tenfold greater injected; 50 mM Tris, 150 mM NaCl, pH 7.4; 25 C; hormone concentrations adjusted to a 1:1 stoichiometry
[2] = biological target: the molecule itself; assay: SEC-MALS; ligand-free Imp-L2, 1 mg/mL, 50 mM Tris pH 7.4, 50 mM NaCl; Superdex S200 10/300
[3] = biological target: Drosophila imaginal morphogenesis protein-late 2 protein (Imp-L2) (Drosophila melanogaster) (UniProt Q09024); assay: ITC; DILP5:Imp-L2 binding as a function of salt: 300 mM NaCl
[4] = biological target: T1, Drosophila imaginal morphogenesis protein-late 2 protein (Imp-L2) (Drosophila melanogaster, UniProt Q09024 26-267); assay: ITC; 300 mM NaCl (legend says 400 mM)
T1 chain: B1 chain

[5] = biological target: Drosophila imaginal morphogenesis protein-late 2 protein (Imp-L2) (Drosophila melanogaster) (UniProt Q09024); assay: ITC; DILP5:Imp-L2 binding as a function of salt: 300 mM NaCl; remark: listed apart in the source

| Molecule | Kd [1] [pM] | stoichiometry N [2] | Kd [3] [pM] | Kd [4] [pM] | Kd [5] [pM] |
| --- | --- | --- | --- | --- | --- |
| Insulin X14 (ProB28Asp), fully monomeric mutant of human insulin (ligand) | 135000 | – | – | – | – |
| B1 | – | 2 | – | – | – |
| B2 | 8000 | – | 5 | 5.4 | 1 |
